Measurements taken from patent publication US20260022175A1 (Chugai, published 2026).
Changes are numbered by the printed parent chain.

B1: H240-Kn443/L73-k0//H240-Hl408/L73-k0 (antibody, human IgG1, kappa)
heavy 1: QDQLVQSGAEVKKPGASVKVSCKASGFNIKDTYIQWVRQAPGQGLEWMGRIDPLRKQTKYREKFEGRVTITADTSTNTAYMELSSLRSEDTAVYYCVRSGREFDYWGQGTLVTVSSASTKGPSVFPLAPSSKSTSGGTAALGCLVKDYFPEPVTVSWNSGALTSGVHTFPAVLQSSGLYSLSSVVTVPSSSLGTQTYICNVNHKPSNTKVDKKVEPKSCDKTHTCPPCPAPEFQWGPMVFLFPPKPKDTLMISRTPEVTCVVVDVSDEEPEVKFNWYVDGVEVHNAKTKPREEQYNATYRVVSVLTVLHQDWLNGKEYKCKVSNDALPAPIEKTISKAKGQPREPQVCTLPPSRDELTKNQVSLWCLVKGFYPSDIAVEWESNGQPENNYKTTPPVLDSDGSFFLYSKLTVDKSRWQQGNVFSCSVMHEALHNHYTQKSLSLSP
heavy 2: QDQLVQSGAEVKKPGASVKVSCKASGFNIKDTYIQWVRQAPGQGLEWMGRIDPLRKQTKYREKFEGRVTITADTSTNTAYMELSSLRSEDTAVYYCVRSGREFDYWGQGTLVTVSSASTKGPSVFPLAPSSKSTSGGTAALGCLVKDYFPEPVTVSWNSGALTSGVHTFPAVLQSSGLYSLSSVVTVPSSSLGTQTYICNVNHKPSNTKVDKKVEPKSCDKTHTCPPCPAPELLAGPSVFLFPPKPKDTLMISRTPEVTCVVVDVSHEEPEVKFNWYVDGVEVHNAKTKPREEQYNATYRVVSVLTVLHQDWLNGKEYKCKVSNDALPAPIEETISKAKGQPREPQVYTLPPSRCELTKNQVSLSCAVKGFYPSDIAVEWESNGQPENNYKTTPPVLDSDGSFFLVSKLTVDKSRWQQGNVFSCSVMHEALHNHYTQKSLSLSP
light: DIQMTQSPSSLSASVGDRVTITCRASQDIHKYIAWYQQKPGQAPRLLIQYTSTLQPGVPSRFSGSGSGTDYTFTISSLQPEDIATYYCLQYEQLRTFGGGTKVEIKRTVAAPSVFIFPPSDEQLKSGTASVVCLLNNFYPREAKVQWKVDNALQSGNSQESVTEQDSKDSTYSLSSTLTLSKADYEKHKVYACEVTHQGLSSPVTKSFNRGEC
notes: also called EGL-ART3; ART3
B2: H240-Kn461/L73-k0//H240-Hl443/L73-k0 (antibody, human IgG1, kappa)
heavy 1: B1 heavy 1 with T249V, T306P, I331E
heavy 2: B1 heavy 2 with T249V, T306P, I331E
light: B1 light
notes: also called EGL-ART8; ART8
B3: H240-Kn462/L73-k0//H240-Hl441/L73-k0 (antibody, human IgG1, kappa)
heavy 1: B1 heavy 1 with T249V, T306P
heavy 2: B1 heavy 2 with T249V, T306P
light: B1 light
notes: also called EGL-ART5; ART5

Key:
[1] = target: hFcγRIIIaV on hFcγRIIIaV-expressing Jurkat cells (human, UniProt P08637 17-254); test: cell-based or functional assay
Sequence of hFcγRIIIaV on hFcγRIIIaV-expressing Jurkat cells (P08637 17-254, form in doubt): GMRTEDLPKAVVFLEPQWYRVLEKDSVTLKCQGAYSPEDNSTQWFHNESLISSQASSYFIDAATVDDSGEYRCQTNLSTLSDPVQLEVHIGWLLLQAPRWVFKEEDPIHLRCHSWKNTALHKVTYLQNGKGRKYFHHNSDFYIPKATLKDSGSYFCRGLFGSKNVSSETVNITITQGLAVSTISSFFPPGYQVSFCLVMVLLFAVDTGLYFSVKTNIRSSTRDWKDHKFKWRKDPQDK

[2] = target: T1, human FcγRIIa H extracellular domain (human, UniProt P12318 34-217); test: SPR Biacore 8K+; KD of G1d divided by KD of this antibody;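 note: antibodies captured on an anti-Fab-kappa streptavidin chip, soluble FcγR ectodomains flowed over, KD by steady-state fit for FcγRIIb and Langmuir kinetic model for the other receptors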
T1 construct: extracellular domain; also called hFcγR IIa H
T1 sequence (looked up): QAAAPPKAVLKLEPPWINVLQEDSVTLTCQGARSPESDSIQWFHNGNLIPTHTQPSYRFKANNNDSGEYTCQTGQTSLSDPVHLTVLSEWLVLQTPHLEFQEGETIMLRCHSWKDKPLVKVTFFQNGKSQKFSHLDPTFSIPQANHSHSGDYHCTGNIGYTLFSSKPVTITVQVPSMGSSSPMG

[3] = target: T2, human FcγRIIb extracellular domain (human, UniProt P31994 43-217); test: as above
T2 construct: extracellular domain; also called hFcγR IIb
T2 sequence (looked up): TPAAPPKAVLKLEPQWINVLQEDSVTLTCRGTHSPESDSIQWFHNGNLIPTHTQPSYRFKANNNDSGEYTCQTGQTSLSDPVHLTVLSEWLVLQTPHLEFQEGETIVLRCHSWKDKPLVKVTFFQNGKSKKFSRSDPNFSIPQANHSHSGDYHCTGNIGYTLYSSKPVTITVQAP

[4] = target: T3, human FcγRIa extracellular domain (human, UniProt P12314 16-292); test: as above
T3 construct: extracellular domain; also called hFcγR Ia; hFcγRIa
T3 sequence (P12314 16-292): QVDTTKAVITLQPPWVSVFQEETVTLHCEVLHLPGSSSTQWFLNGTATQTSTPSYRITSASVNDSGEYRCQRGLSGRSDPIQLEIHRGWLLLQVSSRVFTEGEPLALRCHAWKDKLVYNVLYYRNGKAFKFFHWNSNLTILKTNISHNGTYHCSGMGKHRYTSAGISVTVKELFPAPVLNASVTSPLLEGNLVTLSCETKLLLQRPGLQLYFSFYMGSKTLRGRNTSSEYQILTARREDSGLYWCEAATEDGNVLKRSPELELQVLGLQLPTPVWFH

[5] = target: T4, human FcγRIIa R extracellular domain (human, UniProt P12318 34-217); test: as above
T4 construct: extracellular domain; also called hFcγR IIa R
T4 sequence (looked up): T1 sequence (looked up) with H134R

[6] = target: T5, human FcγRIIIa F extracellular domain (human, UniProt P08637 17-208); test: as above
T5 construct: extracellular domain; also called hFcγR IIIa F
T5 sequence (P08637 17-208): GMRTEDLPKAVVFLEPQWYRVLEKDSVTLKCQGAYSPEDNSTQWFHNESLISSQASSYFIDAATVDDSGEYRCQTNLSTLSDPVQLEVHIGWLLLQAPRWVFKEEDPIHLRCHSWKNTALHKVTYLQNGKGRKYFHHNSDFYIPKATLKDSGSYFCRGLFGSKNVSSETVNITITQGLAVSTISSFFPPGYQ

[7] = target: T6, human FcγRIIIa V extracellular domain (human, UniProt P08637 17-208); test: as above
T6 construct: extracellular domain; also called hFcγR IIIa V
T6 sequence (P08637 17-208 F176V limits assumed): as the sequence (P08637 17-208) above, with F160V counted along it

[8] = target: T1, human FcγRIIa H extracellular domain; test: SPR Biacore 8K+; KD for FcγRIIb divided by KD for this FcγR;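 note: antibodies captured on an anti-human Fab kappa SA chip with soluble human FcγR ectodomains flowed over, FcγRIIb KD from steady-state fit, other FcγR KD from Langmuir model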
Procedure: (§1) The interaction between the produced antibodies and human FcγRs was analyzed using Biacore 8K+ by the method below. For the running buffer, 50 mM Na-Phosphate, 150 mM NaCl, and 0.05% Tween20 (pH 7.4) was used, and measurement was performed at 25° C. The sensor chip used was a Series S SA chip (GE Healthcare) onto which CaptureSelect Human Fab-kappa Kinetics Biotin Conjugate (Thermo Fisher Scientific) was immobilized. An antibody of interest was captured onto this chip, and each FcγR diluted with the running buffer was allowed to interact with it. The chip was regenerated using 10 mM Glycine-HCl (pH 1.5), and repeatedly used to capture antibodies and perform measurement. The dissociation constants KD (mol/L) of each antibody for FcγRs were calculated using Biacore Insight Evaluation Software, with a steady state affinity model for the dissociation constant for FcγRIIb and a 1:1 Langmuir binding model for the dissociation constants for the other FcγRs (Table 48).

[9] = target: T4, human FcγRIIa R extracellular domain; test: as above
Procedure: as §1

[10] = target: T5, human FcγRIIIa F extracellular domain; test: as above
Procedure: as §1

[11] = target: T6, human FcγRIIIa V extracellular domain; test: as above
Procedure: as §1

[12] = target: T7, hFcγRIIaH on hFcγRIIaH-expressing Jurkat cells (human, UniProt P12318 34-317); test: cell-based or functional assay
T7 sequence (looked up): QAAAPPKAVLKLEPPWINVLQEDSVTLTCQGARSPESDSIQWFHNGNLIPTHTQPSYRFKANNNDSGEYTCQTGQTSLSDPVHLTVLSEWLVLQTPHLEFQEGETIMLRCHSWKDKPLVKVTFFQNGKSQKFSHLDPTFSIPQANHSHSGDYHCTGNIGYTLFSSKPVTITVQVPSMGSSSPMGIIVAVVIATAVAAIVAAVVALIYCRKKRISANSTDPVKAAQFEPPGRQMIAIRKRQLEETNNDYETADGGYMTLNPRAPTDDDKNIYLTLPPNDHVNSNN

[13] = target: T2, human FcγRIIb extracellular domain; test: SPR Biacore 8K+, antibody captured, FcγR as analyte, steady state affinity model
[14] = target: T1, human FcγRIIa H extracellular domain; test: SPR Biacore 8K+, antibody captured, FcγR as analyte, 1:1 Langmuir model;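 note: antibodies captured on a streptavidin chip through a biotinylated anti-human Fab kappa reagent, with FcγR extracellular domains injected in pH 7.4 phosphate buffer at 25 °C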
[15] = target: T3, human FcγRIa extracellular domain; test: as above
[16] = target: T4, human FcγRIIa R extracellular domain; test: as above
[17] = target: T5, human FcγRIIIa F extracellular domain; test: as above
[18] = target: T6, human FcγRIIIa V extracellular domain; test: as above
[19] = target: T8, human C1q protein (Calbiochem) (human, UniProt P02745 23-245; P02746 28-253; P02747 29-245); test: ELISA: antibody coated on the plate at the varied concentration, hC1q 3 µg/mL added, detected with HRP-conjugated anti-hC1q antibody, O.D (450-690nm)
T8 construct: bought; also called hC1q
T8 sequence (P02745 23-245 limits assumed, chain 1 of 3): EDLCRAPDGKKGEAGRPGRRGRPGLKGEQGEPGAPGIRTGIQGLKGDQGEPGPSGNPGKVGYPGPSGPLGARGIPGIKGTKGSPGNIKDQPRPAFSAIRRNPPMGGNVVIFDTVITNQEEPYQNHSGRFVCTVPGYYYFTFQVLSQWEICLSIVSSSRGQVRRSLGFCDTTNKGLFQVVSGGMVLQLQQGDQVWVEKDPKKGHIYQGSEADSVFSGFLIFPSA
T8 sequence (P02746 28-253 limits assumed, chain 2 of 3): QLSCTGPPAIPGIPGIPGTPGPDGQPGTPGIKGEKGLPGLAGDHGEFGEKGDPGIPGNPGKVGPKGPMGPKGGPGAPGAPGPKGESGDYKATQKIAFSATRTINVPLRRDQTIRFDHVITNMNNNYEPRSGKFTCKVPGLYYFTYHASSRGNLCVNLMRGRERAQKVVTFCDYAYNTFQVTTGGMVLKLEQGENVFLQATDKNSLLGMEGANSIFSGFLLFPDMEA
T8 sequence (P02747 29-245 limits assumed, chain 3 of 3): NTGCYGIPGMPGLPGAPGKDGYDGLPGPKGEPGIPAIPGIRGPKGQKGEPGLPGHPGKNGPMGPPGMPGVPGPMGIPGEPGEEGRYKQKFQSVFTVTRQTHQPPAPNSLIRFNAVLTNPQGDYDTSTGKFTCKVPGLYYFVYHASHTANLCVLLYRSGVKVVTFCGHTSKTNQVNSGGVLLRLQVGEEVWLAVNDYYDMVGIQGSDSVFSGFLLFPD
Procedure: The antigen used was a human C1q protein (hC1q).
First, a 96-well maxisorp plate (Thermo fisher) was coated at 4° C. overnight with 50 μL of solutions containing each antibody prepared at 30, 10, 3, 1, 0.3, 0.1, and 0.03 μg/mL in PBS. Each well of the plate was washed with Wash buffer to remove the antibody not bound to the plate, and then the wells were blocked with 200 μL of Blocking/dilution Buffer at room temperature for 2 hours or longer. After the Blocking/dilution Buffer was removed from each well, hC1q (Calbiochem) prepared such that the final concentration was 3 μg/mL in Blocking/dilution Buffer was added at 50 μL per well. The plate was then allowed to stand at room temperature for 1 hour to allow hC1q to bind to the antibody within each well. After washing with Wash Buffer, 50 μL of an HRP-conjugated anti-hC1q antibody (AbDSerotec) diluted with Blocking/dilution Buffer was added to each well, and the plate was incubated while standing for 1 hour. After washing with Wash Buffer, TMB single solution (Invitrogen) was added. The color development reaction of the solution in each well was stopped by addition of Stop Buffer, and then the developed color was measured by absorbance at 450 nm and 690 nm.

| Binder | EC50 value (hFcγRIIIaV ADCC Reporter Bioassay, Hepa1-6/hEREG target cells) [1] [ng/mL] | Relative value to KD between G1d and hFcgRs [2] | Relative value to KD between G1d and hFcgRs [3] | Relative value to KD between G1d and hFcgRs [4] | Relative value to KD between G1d and hFcgRs [5] | Relative value to KD between G1d and hFcgRs [6] | Relative value to KD between G1d and hFcgRs [7] | A/I ratio (KD for FcγRIIb divided by KD for each FcγR) [8] | A/I ratio (KD for FcγRIIb divided by KD for each FcγR) [9] | A/I ratio (KD for FcγRIIb divided by KD for each FcγR) [10] | A/I ratio (KD for FcγRIIb divided by KD for each FcγR) [11] | EC50 value (hFcγRIIaH ADCP Reporter Bioassay, Hepa1-6/hEREG target cells) [12] [ng/mL] | Kd [13] [nM] | Kd [14] [nM] | Kd [15] [nM] | Kd [16] [nM] | Kd [17] [nM] | Kd [18] [nM] | binding result [19] |
| --- | --- | --- | --- | --- | --- | --- | --- | --- | --- | --- | --- | --- | --- | --- | --- | --- | --- | --- | --- |
| B1 | 1.53 | 32.1 | 1.6 | 0.5 | 13.7 | 185 | 114 | 181 | 52.4 | 396 | 2000 | 15.8 | 6330 | 35 | 0.172 | 121 | 16 | 3.16 | binds |
| B2 | 1.07 | 15 | 2.8 | 3.2 | 13.2 | 1970 | 695 | 47.2 | 28.1 | 2350 | 6850 | 17.1 | 3530 | 74.9 | 0.028 | 126 | 1.5 | 0.51 | binds |
| B3 | 1.67 | 33.9 | 1.3 | 0.5 | 10.4 | 148 | 92.9 | 240 | 49.9 | 399 | 2060 | 24.5 | 7960 | 33.2 | 0.169 | 160 | 20 | 3.86 | binds |
